From the nanobody polyreactivity screen of Harvey et al. (2022) come the findings set out here.

This data set is described as follows: yeast display, Sf9 membrane polyspecificity reagent, FACS + sequencing; frameworks hold sequencing errors. In a few lines:
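In a synthetic yeast display library (Saccharomyces cerevisiae BJ5465), nanobody expression was induced with galactose for 36–48 hours. FACS gates were set low and high (top ~1%) using anti-HA fluorescence for expression and streptavidin fluorescence for binding of the Sf9 membrane reagent. Each polyreactivity label is drawn from the gate of origin.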
With “QVQLVESGGGLVQAGGSLRLSCAASGFIFTYNAMGWYRQAPGKETEFVASISRSGGRTYYADSVKGRFTISRDNAKNTVYLQMNSLKPEDTAVYYCAARNAYVYGMDYWGHGTQVTVSS”, the “polyreactivity (PSR sort gate)” value is on record as “low polyreactivity”.

With “QVQLVESGGGLVQAGGSLRLSCAASGFIFTYYAMGWYRAAPGKERELVAAIRGSGGRTYYADSVKGRFTISRDNAKNTVYLQMNSLKPEDTAVYYCTADPTWFGYVYYQYDYWGQGTQVTVSS”, the “polyreactivity (PSR sort gate)” value is “low polyreactivity”.

Turning to “QVQLVESGGGLVQAGGSLRLSCAASGFIFTYYAMGWYRQAPGKERELVAAISRIGGSTYYADSVKGRFTISRDNAKYTVYLQMNSLKPEDTAVYYCARYSWPLNKLAVDYWGQGTQVTVSS”, the “polyreactivity (PSR sort gate)” value is listed as “high polyreactivity”.

Consider “QVQLVESGGGLVQAGGSLRLSCAASGFIFTYYTMGWYRPAPGKERELVAAISRTGSTNYADSVKGRFTISRDNAKNTVYLQMNSLKPEDTAVYFCNARYRGWLTLDGGYGYWGQGTQVTVSS”, for which the “polyreactivity (PSR sort gate)” value is “low polyreactivity”.

For “QVQLVESGGGLVQAGGSLRLSCAASGFIFTYYVMGWYRQAPGKERELVATISISDGTTYADSVKGRFTISRDNAKNTVYLQMNSLKPEDTAVYYCAKYFTTYKYDYWGQGTQVTVSS”, the “polyreactivity (PSR sort gate)” value is given as “low polyreactivity”.

On to “QVQLVESGGGLVQAGGSLRLSCAASGFIFVDNAMGWYRQAPGKERELVAAITYRGGSTYYADSVKGRFTISRDNAKNTVYLQMNSLKPEDTAVYYCNADYGDTFEYDYWGQGTQVTVSS”, for which the “polyreactivity (PSR sort gate)” value is recorded as “low polyreactivity”.

Regarding “QVQLVESGGGLVQAGGSLRLSCAASGFIFVDYDMGWYRQAPGKERELVASINWSGGSTDYADSVKGRFTISRDNAKNTVYLQMNSLKPEDTAVYYCAAEGQDGRFYWGQGTQVTVSS”, the “polyreactivity (PSR sort gate)” value is recorded as “low polyreactivity”.

In the case of “QVQLVESGGGLVQAGGSLRLSCAASGFIFVFYAMGWYRQAPGKERELVAAITWSGGGTYYADSVKGRFTISRDNAKNTVYLQMNSLKPEDTAVYYCNAEEPQYYYVLDKLYDYWGQGTQVTVSS”, the “polyreactivity (PSR sort gate)” value is on record as “low polyreactivity”.

“QVQLVESGGGLVQAGGSLRLSCAASGFIFVFYDMGWYRQAPGKERELVAGITRNDGSTYYADSVKGRFKISRDNAKNTVYLLMNSLKPEDTAVYYCAADRVRRNDKLAYDYWGQGTQVTVSS”: the “polyreactivity (PSR sort gate)” value is on record as “low polyreactivity”.

“QVQLVESGGGLVQAGGSLRLSCAASGFIFVGNAMGWYRQAPGKERELVAAISRRGSRTFYADSVKGRFTISRDNAKNTVYLQMNSLKPEDTAVYYCATDKWYGYYYWGQGTQVTVSS”: the “polyreactivity (PSR sort gate)” value was “low polyreactivity”.

As to “QVQLVESGGGLVQAGGSLRLSCAASGFIFVGYAMGWYRQAPGKERELVAAISKSGGSTYYADSVKGRFTISRDNAKNTVYLQMNSLKPEDTAVYYCAAAYASRNYRGLDYWGQGIQVTVSS”, the “polyreactivity (PSR sort gate)” value is reported as “high polyreactivity”.

As to “QVQLVESGGGLVQAGGSLRLSCAASGFIFVKYAMGWYRQAPGKERELVAAISSTGGRTYYADSVKGRFTISRDNAKNTVYLQMNSLKPEVTAVYYCATEYGYPYGYWGQCTQVTVSS”, the “polyreactivity (PSR sort gate)” value is given as “high polyreactivity”.

In the case of “QVQLVESGGGLVQAGGSLRLSCAASGFIFVLYAMGWDRQAPGKERELVAAINGGSSTNYADSVKGRFTISRDNAKNTVYLQMNSLKPEDTAVYYCAADVIPDGVKKPRMYYWGQGTQVTVSS”, the “polyreactivity (PSR sort gate)” value is on record as “low polyreactivity”.

For the sequence “QVQLVESGGGLVQAGGSLRLSCAASGFIFVPNAMGWYRQAPGKERELVAAIRWSDGTTYYADSVKGRFTISRDNAKNTVYLQMNSLKPEDTAVYYCATDHDPRYDYWGQGTQVTVSS”, the “polyreactivity (PSR sort gate)” value is “high polyreactivity”.

In the case of “QVQLVESGGGLVQAGGSLRLSCAASGFIFVPYAMGWYRQAPGKEREFVAAIRCSGGRTYYADSVKGRFSISRDYAKNTVYLQMNSLKPDDTAVYYCAADTWQDRVRKTSFGYDYWGQGTQVTVSS”, the “polyreactivity (PSR sort gate)” value is on record as “high polyreactivity”.

On to “QVQLVESGGGLVQAGGSLRLSCAASGFIFVPYAMGWYRQAPGKERELVARITWSGGRTYYADSVKGRFTISRDNAKNTVYLQMNSLKPEDTAVYYCNADVYGFDYWGQGTQVTVSS”, for which the “polyreactivity (PSR sort gate)” value is recorded as “high polyreactivity”.

For “QVQLVESGGGLVQAGGSLRLSCAASGFIFVRNAMGWYRQAPGKERELVAVITRGGSTYYADSVKGRFTISRDNAKNTVYLQMNSLKPEDTAVYYCDARYYRGTYGRTEGAMDYWGQGTQVTVSS”, the “polyreactivity (PSR sort gate)” value was “high polyreactivity”.

For the sequence “QVQLVESGGGLVQAGGSLRLSCAASGFIFVRYAMGWYRQAPGKERELVAAISWRGGSTYFADSVKGRFTISRDNAKNTVYLQMNSLKPEDTAVYYCAAVTWVHRYSRFNPFVAFDYWGQGTQVTVSS”, the “polyreactivity (PSR sort gate)” value is on record as “high polyreactivity”.

Consider “QVQLVESGGGLVQAGGSLRLSCAASGFIFVRYAMGWYRQAPGKERELVAAITRSGTSTYYADSVKGRFTISRDNAKTTVNLQMNSLKPEDTAVYYCAKEVRSRYGYWGQGTQVTVSS”, for which the “polyreactivity (PSR sort gate)” value is listed as “high polyreactivity”.

Regarding “QVQLVESGGGLVQAGGSLRLSCAASGFIFVRYAMGWYRQAPGKERELVASITRSGGSTYYADSVKGRFTISRDNAKNTVYLQMNSLKPEDTAVYYCNAGLLRRRMDYWGQGTQVTVSS”, the “polyreactivity (PSR sort gate)” value is “high polyreactivity”.

Take “QVQLVESGGGLVQAGGSLRLSCAASGFIFVRYAMGWYRQAPGTERELVASITRSGGSTYYADSVKGRFTISRDNAKNTVYLQLNSLKPEDSAVYYCAASYYRSRGSTYGYWGQGTQVTVSS”: the “polyreactivity (PSR sort gate)” value is “high polyreactivity”.

Regarding “QVQLVESGGGLVQAGGSLRLSCAASGFIFVRYGMGWYRQAPGKERELVAAITWNGGSTFYADSVKGRFTISRDNAKNTVYLQMNSLKPEDTAVYYCAAGYKYSYRSIYTHVDYWGQGTQVTVSS”, the “polyreactivity (PSR sort gate)” value is given as “low polyreactivity”.

Consider “QVQLVESGGGLVQAGGSLRLSCAASGFIFVSNAMGWYRQAPGKERELVAAISKSGARTSYADSVKGRFTISRDNAKNTVYLQMNSLKPEDTAVYYCAASGSGVGIYYKRGNYWGQGTQVTVSS”, for which the “polyreactivity (PSR sort gate)” value is recorded as “high polyreactivity”.

As to “QVQLVESGGGLVQAGGSLRLSCAASGFIFVTNAMGWYRQAPGKERELVAAINWSGGRTYYADSVKGRFTISRDNAKNTVYLQMNSLKPEDTAVYYCAADPYARLGEYGYWGQGTQVTVSS”, the “polyreactivity (PSR sort gate)” value is recorded as “low polyreactivity”.

In the case of “QVQLVESGGGLVQAGGSLRLSCAASGFIFVTYAMGWYRHAPGKERELVAAITNSGGTTYYADSVKGRFTISRDNAKNTVYLQMNSLKPEDTAVYYCNKPYGAETAHREFDYWGQGTQVTVSS”, the “polyreactivity (PSR sort gate)” value is on record as “low polyreactivity”.

Regarding “QVQLVESGGGLVQAGGSLRLSCAASGFIFVVYAMGWYRQAPGKERELVAAITNGGITYYADSVKGRFTISRDNAKNTVYLQMHSLKPEDTADYYCNAQYTDYDGYVGYYYWGEGTQVTVSS”, the “polyreactivity (PSR sort gate)” value is “low polyreactivity”.

Regarding “QVQLVESGGGLVQAGGSLRLSCAASGFIFVVYTMGGYRQEPGKVRELVAAITSGGSTYYADSVKGRFTISRDNAKNTVYLQMNSLKPEDTAVYYCNALASRYQAYYYWGQGTQVTVSS”, the “polyreactivity (PSR sort gate)” value is given as “low polyreactivity”.

In the case of “QVQLVESGGGLVQAGGSLRLSCAASGFIFVWYAMGWYRQAPGKERELVAAISWSGGNTYYADSVKGRFTISRDNAKNTVYLQMNSLKPEDTAVYYCNVVYFDGNPEDYDYWGQGTQVTVSS”, the “polyreactivity (PSR sort gate)” value is listed as “high polyreactivity”.

As for “QVQLVESGGGLVQAGGSLRLSCAASGFIFVYNDMGWYRQAPGKERELVAAISTSGGSTYYADSVKGRFTISRDNAKNTVYLQMNSLKPEDTAVYYCAAGPSYYPFFWPDFEYWGQGTQVTVSS”, the “polyreactivity (PSR sort gate)” value is listed as “high polyreactivity”.

As for “QVQLVESGGGLVQAGGSLRLSCAASGFIFVYYAMGWYRQAPGKERELVAAISSRGGSTYYADSVKRRFTISRDNAKNTVYLQMNSLKPEDTAVYYCAARPSSRRYGTIMDYWGQGTQVTVSS”, the “polyreactivity (PSR sort gate)” value is recorded as “high polyreactivity”.

Regarding “QVQLVESGGGLVQAGGSLRLSCAASGFIFVYYAMGWYRQAPGKERELVATISSSSASTYYADSVKGRFTISRDNAKNTVYLQMNSLKPEDTAVYYCAVLVSRYRYRVLDDSWGQGTQVTVSS”, the “polyreactivity (PSR sort gate)” value is listed as “high polyreactivity”.

In the case of “QVQLVESGGGLVQAGGSLRLSCAASGFIFWEYAMGWYRQAPGKERELVAVISYRGGSTYYADSVKGRFTISRDNAKNTVYLQMNSLKPEDTAVYYCNADTIPDGEDRYDYWGQGTQVTVSS”, the “polyreactivity (PSR sort gate)” value is reported as “low polyreactivity”.

On to “QVQLVESGGGLVQAGGSLRLSCAASGFIFWFYAMGWYRQAPGKERELVASISASGGSTNYADSVKGRFTISRDYAKKTVYLQMNSLKPEDTAVYYCAARKRYLRGYWGQGTQVTVSS”, for which the “polyreactivity (PSR sort gate)” value was “high polyreactivity”.

With “QVQLVESGGGLVQAGGSLRLSCAASGFIFWIYAMGWYRQAPGKEREFVAVITYRGDTSYYADSVKGRFTISRDNAKNTVYLQMNSLKPEDTAVYYCAAYTVQKYGYWGQGTQVTVSS”, the “polyreactivity (PSR sort gate)” value was “low polyreactivity”.

As to “QVQLVESGGGLVQAGGSLRLSCAASGFIFWLYALGWYRKAPGKERELVASINWSGGDTYYADSVKGRFTISRDNPKNTVYLQLNSLKPEDTAVYYCNAQVYRYRIGYDYWGQGPQVTVSS”, the “polyreactivity (PSR sort gate)” value is reported as “low polyreactivity”.

Take “QVQLVESGGGLVQAGGSLRLSCAASGFIFWRYAMGWYRQAPGKDRELVAAISSTGRTYYADSVKGRFTISRDNAKNTVYLQMNSLKPEDTAVYYCNAAPVYLADPTRKYKADYWGQGTQVTVSS”: the “polyreactivity (PSR sort gate)” value is “low polyreactivity”.

For “QVQLVESGGGLVQAGGSLRLSCAASGFIFWRYAMGWYRQAPGKERELVAAITSGGRTNYADSVKGRFTISRDNAKNTVYLQMNSLKPEDTAVYYCAADRSWSPRAGWYDYWGQGTQVTVSS”, the “polyreactivity (PSR sort gate)” value is “high polyreactivity”.

As to “QVQLVESGGGLVQAGGSLRLSCAASGFIFWRYAMGWYRQAPGKERELVATITSSGGTTHYADSVKGRFTISRDNAKNTVYLQMNSLKPEDTAVYYCATRKGVGSLYYSRNYWGQGTQVTVSS”, the “polyreactivity (PSR sort gate)” value is “high polyreactivity”.

For the sequence “QVQLVESGGGLVQAGGSLRLSCAASGFIFWRYTMGWYRQAPGKERELVAVISWRGDNTYADSVEGRFTISRDNAKNTVYLQMNSLKPEDTAVYYCGVYRYDYWGQGTQVTVSS”, the “polyreactivity (PSR sort gate)” value is given as “low polyreactivity”.

For the sequence “QVQLVESGGGLVQAGGSLRLSCAASGFIFWSNAMGWYRQAPGKERELVAAINSSGGRTYYADSVKGRFTISRDNAKNTVYLQMNSLKPEDTAVYYCAARLHSPRYRYDYWGQGTQVTVSS”, the “polyreactivity (PSR sort gate)” value is given as “high polyreactivity”.

Regarding “QVQLVESGGGLVQAGGSLRLSCAASGFIFWTYAMGWYRQAPGKERELVAAITWSGTSTYYADSVKGRFTISRDNAKNTVYLQMNSLKPEDTAVYYCNALYYSRRVDYWGQGTQVTVSS”, the “polyreactivity (PSR sort gate)” value was “high polyreactivity”.
